Measurements reported in US5726147A, “Human mutant tissue factor compositions useful as tissue factor antagonists” (priority 1995, dated 1998).
Positions count from the first letter of the chain named.

B1: S39-T40-S42: human tissue factor triple mutant with alanine at positions 39, 40 and 42 (protein, UniProt P13726 33-295, looked up, variant S39A T40A S42A)
Tissue factor: SGTTNTVAAYNLTWKSTNFKTILEWEPKPVNQVYTVQIAAKAGDWKSKCFYTTDTECDLTDEIVKDVKQTYLARVFSYPAGNVESTGSAGEPLYENSPEFTPYLETNLGQPTIQSFEQVGTKVNVTVEDERTLVRRNNTFLSLRDVFGKDLIYTLYYWKSSSSGKKTAKTNTNEFLIDVDKGENYCFSVQAVIPSRTVNRKSTDSPVECMGQEKGEFREIFYIIGAVVFVVIILVIILAISLHKCRKAGVGQSWKENSPLNVS
B2: Asp-145: human tissue factor mutant, Asp-145 exchanged for alanine (protein, UniProt P13726 33-295, looked up, variant D145A)
Tissue factor: B1 Tissue factor with A39S, A40T, A42S, D145A
B3: Arg-136: human tissue factor mutant, Arg-136 exchanged for alanine (protein, UniProt P13726 33-295, looked up, variant R136A)
Tissue factor: B1 Tissue factor with A39S, A40T, A42S, R136A
B4: Val-198: human tissue factor mutant, Val-198 replaced by alanine (protein, UniProt P13726 33-295, looked up, variant V198A)
Tissue factor: B1 Tissue factor with A39S, A40T, A42S, V198A
B5: Arg-131: human tissue factor mutant, Arg-131 exchanged for alanine (protein, UniProt P13726 33-295, looked up, variant R131A)
Tissue factor: B1 Tissue factor with A39S, A40T, A42S, R131A
B6: S16-T17-K20: human tissue factor triple mutant with alanine at positions 16, 17 and 20 (protein, UniProt P13726 33-295, looked up, variant S16A T17A K20A)
Tissue factor: B1 Tissue factor with S16A, T17A, K20A, A39S, A40T, A42S
B7: K65-D66-K68: human tissue factor triple alanine mutant at positions 65, 66 and 68 (protein, UniProt P13726 33-295, looked up, variant K65A D66A K68A)
Tissue factor: B1 Tissue factor with A39S, A40T, A42S, K65A, D66A, K68A
B8: Val-146: human tissue factor mutant, Val-146 exchanged for alanine (protein, UniProt P13726 33-295, looked up, variant V146A)
Tissue factor: B1 Tissue factor with A39S, A40T, A42S, V146A
B9: Thr-139/Ser-142: human tissue factor mutant, Thr-139 and Ser-142 exchanged for alanine (protein, UniProt P13726 33-295, looked up, variant T139A S142A)
Tissue factor: B1 Tissue factor with A39S, A40T, A42S, T139A, S142A
B10: Arg-200/Lys-201: human tissue factor mutant, Arg-200 and Lys-201 replaced by alanine (protein, UniProt P13726 33-295, looked up, variant R200A K201A)
Tissue factor: B1 Tissue factor with A39S, A40T, A42S, R200A, K201A
B11: Val-67: human tissue factor mutant, Val-67 replaced by alanine (protein, UniProt P13726 33-295, looked up, variant V67A)
Tissue factor: B1 Tissue factor with A39S, A40T, A42S, V67A
B12: Tyr-71: human tissue factor mutant, Tyr-71 replaced by alanine (protein, UniProt P13726 33-295, looked up, variant Y71A)
Tissue factor: B1 Tissue factor with A39S, A40T, A42S, Y71A
B13: Asn-199: human tissue factor mutant, Asn-199 replaced by alanine (protein, UniProt P13726 33-295, looked up, variant N199A)
Tissue factor: B1 Tissue factor with A39S, A40T, A42S, N199A
B14: Phe-147: human tissue factor mutant, Phe-147 exchanged for alanine (protein, UniProt P13726 33-295, looked up, variant F147A)
Tissue factor: B1 Tissue factor with A39S, A40T, A42S, F147A
B15: Thr-106: human tissue factor mutant, Ala replacement for Thr-106 (protein, UniProt P13726 33-295, looked up, variant T106A)
Tissue factor: B1 Tissue factor with A39S, A40T, A42S, T106A
B16: Glu-105: human tissue factor mutant, Ala replacement for Glu-105 (protein, UniProt P13726 33-295, looked up, variant E105A)
Tissue factor: B1 Tissue factor with A39S, A40T, A42S, E105A
B17: Ser-16: full-length human tissue factor mutant, Ser-16 replaced by alanine (protein, UniProt P13726 1-295, looked up, variant S16A)
chain: METPAWPRVPRPETAVARTLLLGWVFAQVAGASGTTNTVAAYNLTWKATNFKTILEWEPKPVNQVYTVQISTKSGDWKSKCFYTTDTECDLTDEIVKDVKQTYLARVFSYPAGNVESTGSAGEPLYENSPEFTPYLETNLGQPTIQSFEQVGTKVNVTVEDERTLVRRNNTFLSLRDVFGKDLIYTLYYWKSSSSGKKTAKTNTNEFLIDVDKGENYCFSVQAVIPSRTVNRKSTDSPVECMGQEKGEFREIFYIIGAVVFVVIILVIILAISLHKCRKAGVGQSWKENSPLNVS
modifications: full-length
notes: full-length human tissue factor mutant, Ser-16 replaced by alanine
B18: Phe-19: full-length human tissue factor mutant, Phe-19 replaced by alanine (protein, UniProt P13726 1-295, looked up, variant F19A)
chain: B17 chain with A48S, F51A
modifications: full-length
notes: full-length human tissue factor mutant, Phe-19 replaced by alanine
B19: Thr-17: full-length human tissue factor mutant, Thr-17 replaced by alanine (protein, UniProt P13726 1-295, looked up, variant T17A)
chain: B17 chain with A48S, T49A
modifications: full-length
notes: full-length human tissue factor mutant, Thr-17 replaced by alanine
B20: Ile-22 to Ala: full-length human tissue factor mutant, Ile-22 replaced by alanine (protein, UniProt P13726 1-295, looked up, variant I22A)
chain: B17 chain with A48S, I54A
modifications: full-length
notes: full-length human tissue factor mutant, Ile-22 replaced by alanine
B21: Arg-196: human tissue factor mutant, Arg-196 replacement by alanine in the Fc-Gc-loop (protein, UniProt P13726 33-295, looked up, variant R196A)
Tissue factor: B1 Tissue factor with A39S, A40T, A42S, R196A
B22: Asp-58 to Ala: human tissue factor mutant, Asp-58 to Ala exchange (EN-strand) (protein, UniProt P13726 33-295, looked up, variant D58A)
Tissue factor: B1 Tissue factor with A39S, A40T, A42S, D58A
B23: Val-64/Tyr-71 to Ala: human tissue factor Val-64/Tyr-71 to Ala double mutant (protein, UniProt P13726 33-295, looked up, variant V64A Y71A)
Tissue factor: B1 Tissue factor with A39S, A40T, A42S, V64A, Y71A

test system: coagulation in recalcified plasma; experiment: One stage clotting (coagulation) assay of specific functional activity of full-length TF mutants in CHO cell lysates; type: biochemical; settings: full-length Ala mutant expressed in CHO cells, cell lysate, coagulant activity normalized to antigen, relative to wild-type TF
Method: The full-length TF mutants prepared above were analyzed for function by coagulation assay. […] Coagulation factor deficient plasmas were purchased from George King Bio-medical. The chromogenic substrate, Spectrozyme FXa, was from American Diagnostica Inc. (Greenwich, Conn.).
An alternative approach was to use a polyvalent antibody purified by affinity for capturing TF followed by detection with the TF8-5G9 monoclonal antibody described above.
Initiation of coagulation by wild-type and mutant TF in recalcified plasma was determined after lysis of cell pellets from 2×10^6 cells/ml for each expressed full-length mutant with 15 mM octyl-glucopyranoside in HBS for 15 minutes at 37 C. followed by a 3-fold dilution.
All data represented are based on at least three independent determinations performed in duplicate.

| Molecule | loss of function (reduction in specific functional activity as % of wild-type activity) |
| --- | --- |
| B1 | 43% |
| B2 | 30-50% |
| B3 | 30-50% |
| B4 | 30-80% |
| B5 | 30-50% |
| B6 | 98% |
| B7 | 70% |
| B8 | 30-50% |
| B9 | 30-50% |
| B10 | 30-80% |
| B11 | 53% |
| B12 | 98% |
| B13 | 30-80% |
| B14 | 30-50% |
| B15 | more than 50% |
| B16 | more than 50% |
| B17 | more than 70% |
| B18 | more than 70% |
| B19 | more than 70% |
| B20 | 35% |

same assay, conditions: residue substituted at the named position

| Molecule | reduction in tissue factor procoagulant cofactor activity when compared to wt-TF |
| --- | --- |
| B13 | ≥ 75% |
| B17 | ≥ 75% |
| B19 | ≥ 75% |

test system: recombinant VIIa; experiment: Linked chromogenic assay with purified VIIa and factor X, apparent dissociation constant of the TF-VIIa interaction; type: biochemical; settings: full-length Ala mutants, linked chromogenic assay
Method: The lysate was prepared by treating cell pellets with 15 mM octyl-glucopyranoside for 15 minutes at 37 C. followed by a 3-fold dilution. […] Formed TF-VIIa complexes were quantified with substrate factor X added at 100 nM for a fixed time. Samples were then removed from the reaction and quenched in 100 mM EDTA in TBS (20 mM Tris-HCl 140 mM NaCl, pH 7.4). […] The rate of Spectrozyme hydrolysis, measured as the increase in absorbance (mOD/min), was determined at ambient temperature in a kinetic plate reader (Molecular Devices, Mountain View, Calif.) followed by quenching and monitoring of product factor Xa formation using the Spectrozyme FXa.
Enzfitter (Elsevier Biosoft) programs were employed to calculate the KDapp from the experimentally determined bound VIIa, and free VIIa which was obtained by subtracting bound VIIa from the initial VIIa concentration.

| Molecule | change in KDapp for the TF-VIIa interaction compared to wild-type TF (ratio KD mutant/KD wild-type) |
| --- | --- |
| B21 | 3.5 fold |
| B22 | 41 fold |
| B23 | 2.1 fold |
| B20 | 11 fold |

same assay, conditions: triple alanine mutants

| Molecule | binding of Factor VIIa |
| --- | --- |
| B6 | not substantially bind Factor VIIa |
| B7 | not substantially bind Factor VIIa |
